# Where two headings read alike, the source gives them in different places.
# T1: FLAG-tagged recombinant human Ang1 (Alexis Biochemicals) (human, UniProt Q15389 20-498, limits assumed)
# T1 construct: Bought reagent; also called hAng1; FLAG-hAng1
# T1 sequence (looked up): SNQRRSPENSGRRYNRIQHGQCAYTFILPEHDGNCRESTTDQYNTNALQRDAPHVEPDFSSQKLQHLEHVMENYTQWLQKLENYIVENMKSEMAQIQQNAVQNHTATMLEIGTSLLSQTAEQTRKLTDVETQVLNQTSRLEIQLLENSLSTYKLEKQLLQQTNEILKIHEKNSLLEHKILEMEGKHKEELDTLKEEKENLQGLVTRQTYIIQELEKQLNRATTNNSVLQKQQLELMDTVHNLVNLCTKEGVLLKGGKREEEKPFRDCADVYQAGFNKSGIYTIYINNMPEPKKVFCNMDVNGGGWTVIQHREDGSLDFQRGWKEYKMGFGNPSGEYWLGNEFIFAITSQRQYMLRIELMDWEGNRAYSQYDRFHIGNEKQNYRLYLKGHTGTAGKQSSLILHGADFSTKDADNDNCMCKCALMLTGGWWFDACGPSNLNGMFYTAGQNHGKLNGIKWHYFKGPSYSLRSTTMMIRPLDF
# T2: recombinant mouse Ang2-FLD (mouse, UniProt O35608 275-496, limits assumed)
# T2 construct: domain: FLD
# T2 sequence (looked up): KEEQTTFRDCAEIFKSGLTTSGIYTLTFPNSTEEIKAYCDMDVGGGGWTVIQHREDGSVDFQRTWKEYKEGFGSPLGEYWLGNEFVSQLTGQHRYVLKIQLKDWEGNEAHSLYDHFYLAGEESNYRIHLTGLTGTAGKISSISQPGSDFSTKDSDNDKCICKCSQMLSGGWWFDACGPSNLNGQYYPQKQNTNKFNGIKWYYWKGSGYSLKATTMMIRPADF
# T3: recombinant human Ang2-FLD (human, UniProt O15123 275-496, limits assumed)
# T3 construct: domain: FLD; not used
# T3 sequence (looked up): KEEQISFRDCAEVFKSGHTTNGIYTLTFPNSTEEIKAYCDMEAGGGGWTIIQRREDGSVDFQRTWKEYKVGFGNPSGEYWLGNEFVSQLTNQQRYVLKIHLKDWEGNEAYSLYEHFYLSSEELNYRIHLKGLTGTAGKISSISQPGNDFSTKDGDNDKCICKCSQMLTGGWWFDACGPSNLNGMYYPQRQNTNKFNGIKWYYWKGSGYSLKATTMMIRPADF
# T4: N-terminally FLAG-tagged mouse Ang2 (HEK293T conditioned medium) (mouse, UniProt O35608 19-496)
# T4 construct: may be a nucleotide entry; also called mAng2; FLAG-mAng2
# T4 sequence: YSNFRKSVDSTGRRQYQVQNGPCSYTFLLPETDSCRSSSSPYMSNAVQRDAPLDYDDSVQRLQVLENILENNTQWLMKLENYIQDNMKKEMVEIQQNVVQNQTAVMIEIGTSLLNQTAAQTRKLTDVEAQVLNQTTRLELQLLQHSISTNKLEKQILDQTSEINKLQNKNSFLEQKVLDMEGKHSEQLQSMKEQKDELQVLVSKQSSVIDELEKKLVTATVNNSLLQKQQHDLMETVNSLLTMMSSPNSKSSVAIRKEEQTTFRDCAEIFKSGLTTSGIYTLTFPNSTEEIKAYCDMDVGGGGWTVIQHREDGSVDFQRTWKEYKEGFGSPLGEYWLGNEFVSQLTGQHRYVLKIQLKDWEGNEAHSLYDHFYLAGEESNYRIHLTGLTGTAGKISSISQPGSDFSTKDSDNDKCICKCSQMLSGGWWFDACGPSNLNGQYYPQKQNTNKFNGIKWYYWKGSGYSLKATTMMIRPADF
# T5: N-terminally FLAG-tagged cynomolgus Ang2 (HEK293T conditioned medium) (cynomolgus, UniProt O15123 19-496 (human entry), limits assumed)
# T5 construct: may be a nucleotide entry; also called cAng2; FLAG-cAng2
# T5 chain: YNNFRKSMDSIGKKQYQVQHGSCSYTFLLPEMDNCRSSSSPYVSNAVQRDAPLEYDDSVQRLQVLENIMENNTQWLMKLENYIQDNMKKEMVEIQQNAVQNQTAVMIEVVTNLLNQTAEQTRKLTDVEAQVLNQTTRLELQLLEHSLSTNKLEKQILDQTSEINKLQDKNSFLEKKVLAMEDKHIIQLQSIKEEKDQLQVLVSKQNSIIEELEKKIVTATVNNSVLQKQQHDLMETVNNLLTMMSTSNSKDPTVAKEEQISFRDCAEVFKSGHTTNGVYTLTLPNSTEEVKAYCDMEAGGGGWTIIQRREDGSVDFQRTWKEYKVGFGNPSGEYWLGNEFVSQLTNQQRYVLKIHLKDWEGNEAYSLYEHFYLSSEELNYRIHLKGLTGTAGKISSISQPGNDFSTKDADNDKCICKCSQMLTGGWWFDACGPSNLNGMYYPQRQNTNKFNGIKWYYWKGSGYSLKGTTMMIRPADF
# T6: recombinant cynomolgus Ang2-FLD (cynomolgus, UniProt A0A2K5VNX6 275-496)
# T6 construct: domain: FLD; also called cyno Ang2-FLD
# T6 sequence: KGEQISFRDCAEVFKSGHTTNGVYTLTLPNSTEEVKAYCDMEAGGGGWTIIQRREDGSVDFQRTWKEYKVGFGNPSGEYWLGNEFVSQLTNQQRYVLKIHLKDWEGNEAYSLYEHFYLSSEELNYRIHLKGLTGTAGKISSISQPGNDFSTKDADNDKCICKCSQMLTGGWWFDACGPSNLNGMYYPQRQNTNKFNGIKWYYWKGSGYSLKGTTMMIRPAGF
# T7: recombinant mouse Ang2-FLD (mouse, UniProt O35608 275-496, limits assumed)
# T7 construct: domain: FLD
# T7 sequence (looked up): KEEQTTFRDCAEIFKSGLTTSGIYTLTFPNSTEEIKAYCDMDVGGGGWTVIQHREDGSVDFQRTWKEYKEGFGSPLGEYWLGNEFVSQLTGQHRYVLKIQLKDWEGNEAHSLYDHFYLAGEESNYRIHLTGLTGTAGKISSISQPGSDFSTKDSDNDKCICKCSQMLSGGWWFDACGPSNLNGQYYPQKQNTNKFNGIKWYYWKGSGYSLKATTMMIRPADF
# T8: recombinant rat Ang2-FLD (rat, UniProt O35462 275-496, limits assumed)
# T8 construct: domain: FLD
# T8 sequence (looked up): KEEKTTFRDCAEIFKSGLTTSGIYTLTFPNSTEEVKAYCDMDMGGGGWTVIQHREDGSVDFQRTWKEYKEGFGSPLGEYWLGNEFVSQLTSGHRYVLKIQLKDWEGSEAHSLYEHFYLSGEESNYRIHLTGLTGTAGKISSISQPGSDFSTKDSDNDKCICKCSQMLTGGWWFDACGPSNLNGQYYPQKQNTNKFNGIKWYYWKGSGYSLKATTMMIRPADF
# T9: recombinant human Ang2-FLD (human, UniProt O15123 275-496, limits assumed)
# T9 construct: domain: FLD
# T9 sequence (looked up): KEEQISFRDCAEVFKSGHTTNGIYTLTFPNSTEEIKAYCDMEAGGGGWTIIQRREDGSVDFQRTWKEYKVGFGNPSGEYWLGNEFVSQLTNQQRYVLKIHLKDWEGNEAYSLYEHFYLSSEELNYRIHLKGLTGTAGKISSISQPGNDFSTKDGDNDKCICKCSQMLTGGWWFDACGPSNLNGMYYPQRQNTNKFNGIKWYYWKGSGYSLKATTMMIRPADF
# T10: FLAG-tagged mouse Ang2 (mouse, UniProt O35608 19-496)
# T10 construct: N-terminally FLAG-tagged, conditioned medium of HEK293T cells; also called mAng2; FLAG-mAng2
# T10 sequence: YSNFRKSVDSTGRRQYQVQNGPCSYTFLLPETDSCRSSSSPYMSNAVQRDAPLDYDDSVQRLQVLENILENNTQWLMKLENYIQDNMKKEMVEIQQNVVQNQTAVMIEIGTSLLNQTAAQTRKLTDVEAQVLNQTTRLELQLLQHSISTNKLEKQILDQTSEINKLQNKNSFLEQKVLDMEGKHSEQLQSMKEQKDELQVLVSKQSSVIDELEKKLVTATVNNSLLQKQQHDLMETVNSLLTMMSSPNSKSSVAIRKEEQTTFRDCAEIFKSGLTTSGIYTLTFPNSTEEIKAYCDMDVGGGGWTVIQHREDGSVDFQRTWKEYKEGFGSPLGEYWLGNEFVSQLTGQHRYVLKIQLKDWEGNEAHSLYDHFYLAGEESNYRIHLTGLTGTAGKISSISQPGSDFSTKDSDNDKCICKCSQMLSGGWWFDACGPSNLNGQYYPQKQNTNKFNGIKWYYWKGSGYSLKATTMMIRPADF
# T11: FLAG-tagged cynomolgus Ang2 (cynomolgus, UniProt O15123 19-496 (human entry), limits assumed)
# T11 construct: N-terminally FLAG-tagged, conditioned medium of HEK293T cells; also called cAng2; FLAG-cAng2
# T11 chain: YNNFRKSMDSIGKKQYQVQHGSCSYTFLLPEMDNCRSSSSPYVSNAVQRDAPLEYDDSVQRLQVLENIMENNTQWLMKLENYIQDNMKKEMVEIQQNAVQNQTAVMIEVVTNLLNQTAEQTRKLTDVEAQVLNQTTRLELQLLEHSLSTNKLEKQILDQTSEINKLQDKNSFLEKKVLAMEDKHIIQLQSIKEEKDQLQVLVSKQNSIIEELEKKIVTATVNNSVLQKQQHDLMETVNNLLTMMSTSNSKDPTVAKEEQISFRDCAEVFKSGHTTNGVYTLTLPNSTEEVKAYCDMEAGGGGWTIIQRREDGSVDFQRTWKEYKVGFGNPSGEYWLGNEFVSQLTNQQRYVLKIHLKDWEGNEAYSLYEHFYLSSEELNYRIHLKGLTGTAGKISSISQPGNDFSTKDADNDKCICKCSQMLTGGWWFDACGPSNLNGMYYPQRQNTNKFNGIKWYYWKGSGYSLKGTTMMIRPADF
# Columns and labels:
# [1] = molecular target: T1, FLAG-tagged recombinant human Ang1 …; assay: ratio of IC50 in hAng1/hTie2 ELISA to IC50 in hAng2/hTie2 ELISA
# Procedure: In brief, 2 μg/mL of Tie2/Fc chimera (R&D Systems, Minneapolis, Minn., USA) is coated in a 96-well MaxiSorp plate (Nunc, Wiesbaden, Germany).
# (§1) In brief, 2 μg/mL of recombinant human Tie2-Fc (R&D Systems, Minneapolis, Minn., USA) is coated overnight at 4° C. in a 96-well MaxiSorp plate (Nunc, Wiesbaden, Germany). Coated wells are blocked with a 1% casein solution.
# [2] = molecular target: T1, FLAG-tagged recombinant human Ang1 …; assay: competition ELISA, FLAG-hAng1 (0.02 nM) on coated hTie2-Fc
# Procedure: as §1
# [3] = molecular target: T12, recombinant cynomolgus Ang2-FLD (cynomolgus); assay: SPR (Biacore T100), binder on CM5 chip, Ang2-FLD as analyte
# T12 construct: domain: FLD; also called cyno Ang2-FLD
# In short: (§2)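 Binders were immobilized by amine coupling onto a CM5 sensor chip, and Ang2-FLD from each species was passed over as analyte at 45 μL/min, with 2 min association and 20 min dissociation. Surfaces were regenerated between injections using a 10 sec 25 mM NaOH pulse and 60 sec stabilization. Rate constants came from a 1:1 Langmuir fit, and KD was derived from them.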
# [4] = molecular target: T2, recombinant mouse Ang2-FLD; assay: as above
# In short: as §2
# [5] = molecular target: T3, recombinant human Ang2-FLD; assay: as above
# In short: as §2
# [6] = molecular target: T4, N-terminally FLAG-tagged mouse Ang2 …; assay: competition ELISA, FLAG-mAng2 on coated mTie2-Fc
# Procedure: (§3) In brief, 2 μg/mL of recombinant mouse Tie2-Fc or cyno Tie2-Fc is coated overnight at 4° C. in a 96-well MaxiSorp plate (Nunc, Wiesbaden, Germany). Coated wells are blocked with a 1% casein solution.
# [7] = molecular target: T5, N-terminally FLAG-tagged cynomolgus …; assay: competition ELISA, FLAG-cAng2 on coated cTie2-Fc
# Procedure: as §3
# [8] = molecular target: T4, N-terminally FLAG-tagged mouse Ang2 …; assay: competition ELISA, FLAG-mAng2 on coated mTie2-Fc; remark: listed apart in the source
# Procedure: as §3
# [9] = molecular target: T6, recombinant cynomolgus Ang2-FLD; assay: SPR (Biacore T100), VHH immobilized, Ang2-FLD injected
# [10] = molecular target: T7, recombinant mouse Ang2-FLD; assay: as above
# [11] = molecular target: T8, recombinant rat Ang2-FLD; assay: as above
# [12] = molecular target: T9, recombinant human Ang2-FLD; assay: as above
# [13] = molecular target: T10, FLAG-tagged mouse Ang2; assay: competition ELISA: FLAG-mAng2 binding to coated mTie2-Fc
# Procedure: as §3
# [14] = molecular target: T11, FLAG-tagged cynomolgus Ang2; assay: competition ELISA: FLAG-cAng2 binding to coated cTie2-Fc
# Procedure: as §3
binder,measurement,setting,value
"VHH 10H02 (VHH, also called 010H02; not shown: C-terminal c-myc tag and His6 tag) VHH: EVQLVESGGGSVQAGGSLRLSCAASGFTFDDYAIGWFRQAPGKEREGVSCISSSDGSTNYADSVKGRFTISSDTAKNTVYLQMNSLKPEDTAVYYCTAVPATRRTPQMVDANMCWLAEYEYDYWGQGTQVTVSS",hAng1/hAng2 ratio,[1],230
same,IC50,[2],2000 nM
same,Kd,[3],3.4 nM
same,koff,[3],0.023 s⁻¹
same,kon,[3],6.9e+06 M⁻¹ s⁻¹
same,Kd,[4],11 nM
same,koff,[4],0.026 s⁻¹
same,kon,[4],2.5e+06 M⁻¹ s⁻¹
same,Kd,[5],3.6 nM
same,koff,[5],0.021 s⁻¹
same,kon,[5],5.7e+06 M⁻¹ s⁻¹
same,IC50,[6],21.4 nM
same,IC50,[7],23.7 nM
same,IC50,[8],5.2 nM
"VHH 00919 (VHH, not shown: small tags and cut ends) VHH: EVQLVESGGGLVQPGGSLRLSCAASGFTLDDYAIGWFRQAPGKEREGVSAIRDNGGSTYYADSVKGRFTISSDNSKNTVYLQMNSLRPEDTAVYYCAAVPAGRLRFGEQWYPLYEYDAWGQGTLVTVSS",Kd,[9],0.54 nM
same,koff,[9],0.0012 s⁻¹
same,kon,[9],2.3e+06 M⁻¹ s⁻¹
same,Kd,[10],3 nM
same,koff,[10],0.0039 s⁻¹
same,kon,[10],1.3e+06 M⁻¹ s⁻¹
same,Kd,[11],10 nM
same,koff,[11],0.005 s⁻¹
same,kon,[11],500000 M⁻¹ s⁻¹
same,Kd,[12],1.6 nM
same,koff,[12],0.0015 s⁻¹
same,kon,[12],950000 M⁻¹ s⁻¹
same,IC50,[13],1.8 nM
same,IC50,[14],0.7 nM

# Reference: patent US20230203146A1 (Boehringer Ingelheim, published 2023)
